From patent publication US20250049894A1, “TREATMENT OF NUDT2 MUTATION” (UNIVERSITÉ DE GENÈVE, priority 2021, published 2025)

B1: 6×His-SUMO-tagged human NUDT2: recombinant full-length human NUDT2 with the larger 6×-His-SUMO tag (protein, UniProt P50583 1-147, looked up)
chain: MALRACGLIIFRRCLIPKVDNNAIEFLLLQASDGIHHWTPPKGHVEPGEDDLETALRETQEEAGIEAGQLTIIEGFKRELNYVARNKPKTVIYWLAEVKDYDVEIRLSHEHQAYRWLGLEEACQLAQFKEMKAALQEGHQFLCSIEA
modifications: full-length 6xHis-SUMO tag
notes: recombinant full-length human NUDT2 with the larger 6×-His-SUMO tag
B2: NUDT2: recombinant full-length human NUDT2, Nudix hydrolase for Ap4A (protein)
chain: ALRACGLIIFRRHLIPKMDNSTIEFLLLQASDGIHHWTPPKGHVDPGENDLETALRETREETGIEASQLTIIEGFRRELNYVARQKPKTVIYWLAEVKDYNVEIRLSQEHQAYRWLGLEEACQLAQFKEMKATLQEGHQFLCSTPA
B3: nuclease P1: nuclease used to hydrolyze RNAs prior to mass spectrometry (protein, UniProt P24289 1-270, looked up)
Nuclease P1: WGALGHATVAYVAQHYVSPEAASWAQGILGSSSSSYLASIASWADEYRLTSAGKWSASLHFIDAEDNPPTNCNVDYERDCGSSGCSISAIANYTQRVSDSSLSSENHAEALRFLVHFIGDMTQPLHDEAYAVGGNKINVTFDGYHDNLHSDWDTYMPQKLIGGHALSDAESWAKTLVQNIESGNYTAQAIGWIKGDNISEPITTATRWASDANALVCTVVMPHGAAALQTGDLYPTYYDSVIDTIELQIAKGGYRLANWINEIHGSEIAK
B4: NUDT12: recombinant untagged full-length human NUDT12 (protein, UniProt Q9BQG2 1-462, looked up)
chain: MSSVKRSLKQEIVTQFHCSAAEGDIAKLTGILSHSPSLLNETSENGWTALMYAARNGHPEIVQFLLEKGCDRSIVNKSRQTALDIAVFWGYKHIANLLATAKGGKKPWFLTNEVEECENYFSKTLLDRKSEKRNNSDWLLAKESHPATVFILFSDLNPLVTLGGNKESFQQPEVRLCQLNYTDIKDYLAQPEKITLIFLGVELEIKDKLLNYAGEVPREEEDGLVAWFALGIDPIAAEEFKQRHENCYFLHPPMPALLQLKEKEAGVVAQARSVLAWHSRYKFCPTCGNATKIEEGGYKRLCLKEDCPSLNGVHNTSYPRVDPVVIMQVIHPDGTKCLLGRQKRFPPGMFTCLAGFIEPGETIEDAVRREVEEESGVKVGHVQYVACQPWPMPSSLMIGCLALAVSTEIKVDKNEIEDARWFTREQVLDVLTKGKQQAFFVPPSRAIAHQLIKHWIRINPNL
modifications: full-length

Columns and labels:
Format in all cases: biochemical
m^7G-RNA = assay: In vitro m7G-RNA decapping assay (cap-labelled RNA, thin-layer chromatography); details: recombinant protein 250 nM to 750 nM, 37° C., 30 min, TLC
[1] = Ap4A hydrolysis assay (32P-labelled Ap4A, thin-layer chromatography); details: 750 nM recombinant human NUDT2 or Nuclease P1 0.5 and 1 unit, TLC
Protocol: To prepare radioactive Ap4A, we incubated 60 μCi of radioactive α-^32P-ATP (Perkin Elmer, Cat. no. BLU003X250UC; 75 fmol in 20 ul or 3.75 nM concentration) with 1 μM recombinant human Lys-tRNA synthetase (G540Y mutant) at 37° C. overnight in a 20 μl solution [100 mM Tris-HCl, pH 8.0, 10 mM MgCl2, 0.1 mM ZnCl2, 1 mM Lysine and 0.1 units inorganic pyrophosphatase (Sigma-Aldrich, Cat. no. I1643)].
We resolved the reaction products using thin-layer chromatography, using PEI-cellulose TLC plates (Merk, Cat. No. 1057250001) and developing it in 0.45 M (NH4)2SO4 using a glass chamber at room temperature. In addition to the ATP already present in the reaction, we see the presence of Ap4A (FIG. 9D). From this Ap4A mix (ATP and Ap4A), we obtained purified radioactive Ap4A (FIG. 9E) by HPLC (purification service kindly provided by Hartmann Analytic, Germany). For some experiments (FIG. 9F-G) we used this Ap4A mix (ATP and Ap4A). However, for most experiments (FIG. 2, FIG. 9E) the purified radioactive Ap4A was used.
For hydrolysis assays with Ap4A (AppppA, in bold is 32P), reactions were conducted as above, but the RNA was replaced with appropriate amount of HPLC-purified Ap4A. Hydrolysis assays were conducted with 750 nM of recombinant human NUDT2 or with Nuclease P1 (0.5 unit and 1 unit). NUDT2 hydrolyzes Ap4A (AppppA, in bold is 32P) into α-^32P-AMP and α-^32P-ATP (FIG. 2D).

Ap4A-RNA = assay: In vitro Ap4A-RNA decapping assay (cap-labelled RNA, thin-layer chromatography); details: recombinant protein 250 nM to 750 nM, 37° C., 30 min, TLC
Protocol: Briefly, using the Ap4A mixture (ATP and Ap4A) or Ap4A instead of ATP for in vitro transcription by MEGAshortscript™ T7 Transcription Kit (Life technologies; Cat. No. AM1354), we produced a 50 nt RNA. Template is the same as making 50 nt RNA for MEFs transfection. Note that if the mixture is used, this nucleotide mixture (ATP and Ap4A) still has all the components (lysine, inorganic pyrophosphatase etc) added during the Ap4A synthesis. In vitro transcription reaction was carried out at 37° C. for at least 4 h in a 20 μL reaction containing 6 pmol DNA template, 2 μL 10× reaction buffer, 2 μL of nucleotides (75 mM CTP, 75 mM UTP, 75 mM GTP), 2 μL of ATP/Ap4A mixture that we produced above, and 2 μL T7 enzyme mix (MEGAshortscript™ Kit, Life technologies, Cat. No. AM1354). After that, 1 μL TURBO DNase was added and incubated at 37° C. for 15 min to remove the DNA template. Unincorporated nucleotides were removed from the RNA preparation by Microspin G-25 Column (GE Healthcare, Cat. No. 27-5325-01), and the process was repeated twice. The radioactively labelled RNA was separated by 10% urea gel. […]
Decapping reaction products were resolved by PEI-cellulose TLC plates (Merk, Cat. No. 1057250001) and developed in 0.45 M (NH4)2SO4 in a glass chamber at room temperature. […] When required, signals were quantified by ImageQuantTL.

Molecule	m7G-RNA decapping activity (m^7G-RNA)	Hydrolysis of Ap4A [1]	Ap4A-RNA decapping activity (Ap4A-RNA)
B1	poorly active	–	–
B2	can decap m^7G-RNAs	mostly asymmetrically hydrolyzed into ATP (Appp) and AMP (pA)	only NUDT2 has Ap4A-RNA decapping activity
B3	–	able to efficiently hydrolyse Ap4A	–
B4	–	–	only NUDT2 has Ap4A-RNA decapping activity
